Data: article PMC4231051

B1: BglA (β-glucosidase A) (Paenibacillus polymyxa; T231K) (protein)
chain: TIFQFPQDFMWGTATAAYQIEGAYQEDGRGLSIWDTFAHTPGKVFNGDNGNVACDSYHRYEEDIRLMKELGIRTYRFSVSWPRIFPNGDGEVNQEGLDYYHRVVDLLNDNGIEPFCTLYHWDLPQALQDAGGWGNRRTIQAFVQFAETMFREFHGKIQHWLTFNEPWCIAFLSNMLGVHAPGLTNLQTAIDVGHHLLVAHGLSVRRFRELGTSGQIGIAPNVSWAVPYSKSEEDKAACARTISLHSDWFLQPIYQGSYPQFLVDWFAEQGATVPIQDGDMDIIGEPIDMIGINYYSMSVNRFNPEAGFLQSEEINMGLPVTDIGWPVESRGLYEVLHYLQKYGNIDIYITENGACINDEVVNGKVQDDRRISYMQQHLVQVHRTIHDGLHVKGYMAWSLLDNFEWAEGYNMRFGMIHVDFRTQVRTPKESYYWYRNVVSNNWLETRR
B2: BglA (β-glucosidase A) (Paenibacillus polymyxa) (protein)
chain: TIFQFPQDFMWGTATAAYQIEGAYQEDGRGLSIWDTFAHTPGKVFNGDNGNVACDSYHRYEEDIRLMKELGIRTYRFSVSWPRIFPNGDGEVNQEGLDYYHRVVDLLNDNGIEPFCTLYHWDLPQALQDAGGWGNRRTIQAFVQFAETMFREFHGKIQHWLTFNEPWCIAFLSNMLGVHAPGLTNLQTAIDVGHHLLVAHGLSVRRFRELGTSGQIGIAPNVSWAVPYSTSEEDKAACARTISLHSDWFLQPIYQGSYPQFLVDWFAEQGATVPIQDGDMDIIGEPIDMIGINYYSMSVNRFNPEAGFLQSEEINMGLPVTDIGWPVESRGLYEVLHYLQKYGNIDIYITENGACINDEVVNGKVQDDRRISYMQQHLVQVHRTIHDGLHVKGYMAWSLLDNFEWAEGYNMRFGMIHVDFRTQVRTPKESYYWYRNVVSNNWLETRR
B3: BglA (β-glucosidase A) (Paenibacillus polymyxa; E96K) (protein)
chain: TIFQFPQDFMWGTATAAYQIEGAYQEDGRGLSIWDTFAHTPGKVFNGDNGNVACDSYHRYEEDIRLMKELGIRTYRFSVSWPRIFPNGDGEVNQKGLDYYHRVVDLLNDNGIEPFCTLYHWDLPQALQDAGGWGNRRTIQAFVQFAETMFREFHGKIQHWLTFNEPWCIAFLSNMLGVHAPGLTNLQTAIDVGHHLLVAHGLSVRRFRELGTSGQIGIAPNVSWAVPYSTSEEDKAACARTISLHSDWFLQPIYQGSYPQFLVDWFAEQGATVPIQDGDMDIIGEPIDMIGINYYSMSVNRFNPEAGFLQSEEINMGLPVTDIGWPVESRGLYEVLHYLQKYGNIDIYITENGACINDEVVNGKVQDDRRISYMQQHLVQVHRTIHDGLHVKGYMAWSLLDNFEWAEGYNMRFGMIHVDFRTQVRTPKESYYWYRNVVSNNWLETRR
B4: BglA (β-glucosidase A) (Paenibacillus polymyxa; Q216R) (protein)
chain: TIFQFPQDFMWGTATAAYQIEGAYQEDGRGLSIWDTFAHTPGKVFNGDNGNVACDSYHRYEEDIRLMKELGIRTYRFSVSWPRIFPNGDGEVNQEGLDYYHRVVDLLNDNGIEPFCTLYHWDLPQALQDAGGWGNRRTIQAFVQFAETMFREFHGKIQHWLTFNEPWCIAFLSNMLGVHAPGLTNLQTAIDVGHHLLVAHGLSVRRFRELGTSGRIGIAPNVSWAVPYSTSEEDKAACARTISLHSDWFLQPIYQGSYPQFLVDWFAEQGATVPIQDGDMDIIGEPIDMIGINYYSMSVNRFNPEAGFLQSEEINMGLPVTDIGWPVESRGLYEVLHYLQKYGNIDIYITENGACINDEVVNGKVQDDRRISYMQQHLVQVHRTIHDGLHVKGYMAWSLLDNFEWAEGYNMRFGMIHVDFRTQVRTPKESYYWYRNVVSNNWLETRR
B5: BglA (β-glucosidase A) (Paenibacillus polymyxa; E96R) (protein)
chain: TIFQFPQDFMWGTATAAYQIEGAYQEDGRGLSIWDTFAHTPGKVFNGDNGNVACDSYHRYEEDIRLMKELGIRTYRFSVSWPRIFPNGDGEVNQRGLDYYHRVVDLLNDNGIEPFCTLYHWDLPQALQDAGGWGNRRTIQAFVQFAETMFREFHGKIQHWLTFNEPWCIAFLSNMLGVHAPGLTNLQTAIDVGHHLLVAHGLSVRRFRELGTSGQIGIAPNVSWAVPYSTSEEDKAACARTISLHSDWFLQPIYQGSYPQFLVDWFAEQGATVPIQDGDMDIIGEPIDMIGINYYSMSVNRFNPEAGFLQSEEINMGLPVTDIGWPVESRGLYEVLHYLQKYGNIDIYITENGACINDEVVNGKVQDDRRISYMQQHLVQVHRTIHDGLHVKGYMAWSLLDNFEWAEGYNMRFGMIHVDFRTQVRTPKESYYWYRNVVSNNWLETRR

Substrate: O=[N+]([O-])c1ccc(O[C@@H]2O[C@H](CO)[C@@H](O)[C@H](O)[C@H]2O)cc1
Experiment: purified protein
Conditions: 50 mM citrate phosphate buffer, pH 7.0, 37 °C, 5.5 min, 0.02-3 mM pNPG

Point of comparison: B1, Km 610 ± 70 µM. Against it:
- B2 — 2-fold higher, 1210 ± 30 µM
- B3 — 3.2-fold lower, 190 ± 10 µM
- B4 — within 1.5-fold, 460 ± 0 µM
- B5 — within 1.5-fold, 470 ± 20 µM

Point of comparison: B5, kcat 21.2 s⁻¹. Against it:
- B1 — 1.7-fold higher, 36.3 s⁻¹
- B2 — 2.1-fold higher, 44.7 s⁻¹
- B3 — within 1.5-fold, 28.4 s⁻¹
- B4 — within 1.5-fold, 26 s⁻¹

Point of comparison: B2, kcat/Km 36900 M⁻¹ s⁻¹. Against it:
- B1 — 1.6-fold higher, 59300 M⁻¹ s⁻¹
- B3 — 4-fold higher, 149000 M⁻¹ s⁻¹
- B4 — 1.5-fold higher, 56900 M⁻¹ s⁻¹
- B5 — within 1.5-fold, 44800 M⁻¹ s⁻¹
